Measured values as given in US20110086770A1 (ANAPHORE, published 2011).
Changes are numbered by the printed parent chain.

T1: recombinant human IL-23R/Fc chimera (R&D Systems) (human, UniProt Q5VWK5 24-353)
T1 construct: bought; also called human IL-23R/Fc fusion protein; rhIL23RFc
T1 sequence (looked up): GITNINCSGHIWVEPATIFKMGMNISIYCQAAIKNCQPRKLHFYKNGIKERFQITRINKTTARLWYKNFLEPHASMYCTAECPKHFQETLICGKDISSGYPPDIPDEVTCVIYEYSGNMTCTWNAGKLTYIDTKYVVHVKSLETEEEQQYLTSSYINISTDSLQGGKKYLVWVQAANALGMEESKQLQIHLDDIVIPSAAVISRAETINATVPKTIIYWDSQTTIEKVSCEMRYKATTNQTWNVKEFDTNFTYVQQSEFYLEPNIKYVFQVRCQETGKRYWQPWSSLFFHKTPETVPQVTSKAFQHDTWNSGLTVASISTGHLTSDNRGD

B1: 101-51-1A3 ATRIMER (designed binder)
chain: EPPTQKPKKIVNAKKDVVNTKMFEELKSRLDTLAQEVALLKEQQALQTVCLKGTKVHMKCFLAFTQTKTFHEASEDCISRGGTLSTPQTGSENDALYEYLRQSVGNEAEIWLGLNGSALTNTWVDMTGARIAYKNWEHQPVYQPGGGWGVFGENCAVLSGAANGKWFDKRCRDQLPYICQFGIV
modifications: ATRIMER is a homotrimer; one protomer is given.
notes: not shown: C-terminal purification tag: Myc/His6 (pANA4) or HA-StrepII (pANA10)
B2: 105-08-1C10 ATRIMER (designed binder)
chain: B1 chain with A118S, L119V, H138T, Q139E, P140I, V141T, Y142A, G145D, V150Y
B3: 105-08-2C1 ATRIMER (designed binder)
chain: B1 chain with A118S, N121D, H138T, Q139E, P140I, V141T, Y142A, G145D, V150Y
B4: 105-08-1D1 ATRIMER (designed binder)
chain: B1 chain with N121D, H138T, Q139E, P140I, V141T, Y142A, G145D, V150Y
B5: 105-08-2E12 ATRIMER (designed binder)
chain: B1 chain with A118G, N121D, H138T, Q139E, P140I, V141T, Y142A, G145D, V150Y
B6: 105-08-1C11 ATRIMER (designed binder)
chain: EPPTQKPKKIVNAKKDVVNTKMFEELKSRLDTLAQEVALLKEQQALQTVCLKGTKVHMKCFLAFTQTKTFHEASEDCISRGGTLSTPQTGSENDALYEYLRQSVGNEAEIWLGLNGSSRTDTWVDMTGARIAYKNWETEITAQPDGGFGYFGENCAVLSGAANGKWFDKRCRDQLPYICQFGIV
notes: not shown: C-terminal tag: His/Myc (pANA4) or HA-StrepII (pANA10)
B7: 101-51-1A10 ATRIMER (designed binder)
chain: B1 chain with Q139P, P140L, V141P, Y142P, G145S, W148F, V150Y
modifications: ATRIMER is a homotrimer; one protomer is given.
notes: as for B1
B8: 105-08-1C3 ATRIMER (designed binder)
chain: B6 chain with S118Q, R119L, F148W
B9: 101-51-1A6 ATRIMER (designed binder)
chain: B1 chain with H138N, Q139N, P140L, V141S, Y142A, G145R, W148F, V150Y
modifications: ATRIMER is a homotrimer; one protomer is given.
notes: as for B1
B10: 105-08-1A4 ATRIMER (designed binder)
chain: B6 chain with S118A, R119V, D121N
B11: 105-08-2F6 ATRIMER (designed binder)
chain: B6 chain with S118A, R119Y, D121N
notes: as for B6
B12: 105-08-1C9 ATRIMER (designed binder)
chain: B6 chain with S118T, R119L
notes: as for B6
B13: 105-08-2G2 ATRIMER (designed binder)
chain: B6 chain with S118A, R119I, F148W
B14: 105-08-1G12 ATRIMER (designed binder)
chain: B6 chain with S118L, D121G, F148W
B15: 105-08-1B10 ATRIMER (designed binder)
chain: B6 chain with S118R, R119H
B16: 105-08-1A7 ATRIMER (designed binder)
chain: B6 chain with S118V, D121N
modifications: Homotrimer of the given chain (ATRIMER complex).
B17: 105-08-2C6 ATRIMER (designed binder)
chain: B6 chain with S118Q, F148W
B18: 101-51-1A8 ATRIMER (designed binder)
chain: B1 chain with H138R, Q139T, V141P, Y142W, G145E, W148F, V150Y
modifications: ATRIMER is a homotrimer; one protomer is given.
notes: as for B1
B19: 101-80-5E8 ATRIMER (designed binder)
chain: B1 chain with H138P, Q139P, P140E, V141P, Y142L, Q143H, G145M, W148F
B20: 105-08-2C4 ATRIMER (designed binder)
chain: B6 chain with S118L, R119L, D121N
modifications: Homotrimer of the given chain (ATRIMER complex).
B21: 105-08-1C4 ATRIMER (designed binder)
chain: B6 chain with S118T, R119L, F148W
modifications: Homotrimer of the given chain (ATRIMER complex).
B22: 105-08-2G6 ATRIMER (designed binder)
chain: B6 chain with S118L, R119L, F148W
notes: as for B6
B23: 105-08-2C11 ATRIMER (designed binder)
chain: B6 chain with S118L, R119K, D121Q, F148W
B24: 101-54-4B3 ATRIMER (designed binder)
chain: B1 chain with H138L, Q139P, V141P, Y142G, Q143H, G145Q, W148F
B25: 105-08-1A8 ATRIMER (designed binder)
chain: B6 chain with S118P, D121N, Y150V
notes: not shown: C-terminal tag: Myc/His6 (pANA4) or HA-StrepII (pANA10); A Ser left at the ompA junction may also sit at the N-terminus
B26: 105-08-1C2 ATRIMER (designed binder)
chain: B6 chain with S118R, R119A
modifications: Forms a homotrimer (ATRIMER) through the tetranectin coiled coil; one protomer is given.
notes: not shown: C-terminal tag
B27: 105-08-1D3 ATRIMER (designed binder)
chain: B6 chain with S118K, R119V, D121E
notes: as for B1
B28: 105-08-2G10 ATRIMER (designed binder)
chain: B6 chain with S118P, R119L
B29: 105-08-2C10 ATRIMER (designed binder)
chain: B6 chain with S118L, R119L, Y150V
notes: as for B1
B30: 105-08-2G7 ATRIMER (designed binder)
chain: B6 chain with S118P, R119K, D121G
notes: as for B6
B31: 105-08-1B7 ATRIMER (designed binder)
chain: B6 chain with S118P
modifications: Forms a homotrimer (ATRIMER) through the tetranectin coiled coil; one protomer is given.
notes: not shown: C-terminal tag
B32: 105-08-1G2 ATRIMER (designed binder)
chain: B6 chain with R119K, D121N, F148W
notes: as for B6
B33: 105-08-2B3 ATRIMER (designed binder)
chain: B6 chain with S118A, R119I, D121N, F148W
B34: 101-54-4A12 ATRIMER (designed binder)
chain: EPPTQKPKKIVNAKKDVVNTKMFEELKSRLDTLAQEVALLKEQQALQTVCLKGTKVHMKCFLAFTQTKTFHEASEDCISRGGTLSTPQTGSENDALYEYLRQSVGNEAEIWLGLNGSRRSGVWVDMTGARIAYKNWEPPGPAHPQGGFGVFGENCAVLSGAANGKWFDKRCRDQLPYICQFGIV
B35: 105-08-1D12 ATRIMER (designed binder)
chain: B6 chain with S118V, R119L
B36: 105-08-1B1 ATRIMER (designed binder)
chain: B6 chain with S118P, D121Q
modifications: Homotrimer of the given chain (ATRIMER complex).
B37: 105-08-2A1 ATRIMER (designed binder)
chain: B6 chain with S118M, F148W
B38: 105-08-2G4 ATRIMER (designed binder)
chain: B6 chain with S118P, D121G
notes: as for B6
B39: 105-08-1D2 ATRIMER (designed binder)
chain: B6 chain with S118P, R119V
modifications: Forms a homotrimer (ATRIMER) through the tetranectin coiled coil; one protomer is given.
notes: not shown: C-terminal tag
B40: 105-08-2C9 ATRIMER (designed binder)
chain: B6 chain with S118T, R119L, D121N, F148W
notes: as for B6
B41: 105-08-1D10 ATRIMER (designed binder)
chain: B6 chain with S118A, D121G, F148W
notes: as for B6
B42: 105-08-2D2 ATRIMER (designed binder)
chain: B6 chain with S118A, D121G
modifications: Forms a homotrimer (ATRIMER) through the tetranectin coiled coil; one protomer is given.
notes: not shown: C-terminal tag
B43: 105-08-2H2 ATRIMER (designed binder)
chain: B6 chain with S118P, R119T, F148W
B44: 105-08-1C6 ATRIMER (designed binder)
chain: B6 chain with S118A, R119L
B45: 105-08-2C12 ATRIMER (designed binder)
chain: B6 chain with S118Q
modifications: Homotrimer of the given chain (ATRIMER complex).
B46: 101-54-4B6 ATRIMER (designed binder)
chain: B34 chain with R118A, R119L, S120T, G121N, V122T, A142H, Q145M
B47: 105-08-2G1 ATRIMER (designed binder)
chain: B6 chain with S118P, R119K, D121H
B48: 105-08-1G9 ATRIMER (designed binder)
chain: B6 chain with S118P, R119K
notes: as for B6
B49: 105-08-1A10 ATRIMER (designed binder)
chain: B6 chain with R119I, F148W
modifications: Forms a homotrimer (ATRIMER) through the tetranectin coiled coil; one protomer is given.
notes: not shown: C-terminal tag
B50: 105-08-2C8 ATRIMER (designed binder)
chain: B6 chain with S118W, R119L, F148W

These binders were tested against T1, recombinant human IL-23R/Fc chimera … (assay: competition ELISA against IL-23).
Protocol: Assays were performed generally as follows. Individual wells in Immulon HB2 plates were incubated overnight at 4° C. with 100 μL PBS containing 100 ng of an anti-human IgG Fc (R&D MAB 110 clone 97924). Plates were washed five times with PBS/0.05% Tween 20, and wells were incubated for 1.5 h at RT with 100 μL each of PBS containing 50 ng of recombinant human IL-23R/Fc. […] Competitor was included at a final concentration of 1 μg/mL. After incubation, plates were washed as described and wells were incubated for 40 min at RT with 100 μL each of PBS containing a 1:5000 dilution of streptavidin-HRP conjugate (Pierce catalog no. 21130). After washing, wells were incubated with 100 μL each of TMB (BioFX Lab catalog no. TMBH-1000-0) for up to 30 min at RT. Reactions were stopped with an equal volume of 0.2 M sulfuric acid.

| Ratio IC50 to 056-53.H4E IC50 | Binder |
| --- | --- |
| 1.6 ratio | B1 |
| 5 ratio | B2 |
| 3.6 ratio | B3 |
| 3.6 ratio | B4 |
| 9.1 ratio | B5 |
| 2.8 ratio | B6 |
| 8.7 ratio | B7 |
| 3.6 ratio | B8 |
| 2.6 ratio | B9 |
| 1.6 ratio | B10 |
| 2.4 ratio | B11 |
| 7.4 ratio | B12 |
| 3.8 ratio | B13 |
| 13.2 ratio | B14 |
| 4.7 ratio | B15 |
| 2.9 ratio | B16 |
| 3.6 ratio | B17 |
| 3.7 ratio | B18 |
| 0.6 ratio | B19 |
| 2.9 ratio | B20 |
| 3.3 ratio | B21 |
| 5.2 ratio | B22 |
| 9.1 ratio | B23 |
| 1 ratio | B24 |
| 1.6 ratio | B25 |

| Ratio IC50 to 056-53.H4E IC50 | Binder |
| --- | --- |
| 4.1 ratio | B26 |
| 0.4 ratio | B27 |
| 1.8 ratio | B28 |
| 0.9 ratio | B29 |
| 2.5 ratio | B30 |
| 4.1 ratio | B31 |
| 5.5 ratio | B32 |
| 3.4 ratio | B33 |
| 1.1 ratio | B34 |
| 4.6 ratio | B35 |
| 3.3 ratio | B36 |
| 5 ratio | B37 |
| 2.5 ratio | B38 |
| 4.3 ratio | B39 |
| 5.3 ratio | B40 |
| 5.5 ratio | B41 |
| 4.1 ratio | B42 |
| 4 ratio | B43 |
| 2 ratio | B44 |
| 3.3 ratio | B45 |
| 0.3 ratio | B46 |
| 2.2 ratio | B47 |
| 2.4 ratio | B48 |
| 4.3 ratio | B49 |
| 8.4 ratio | B50 |
